Substrate in the data set “purified protein”: CC(=O)O
Nature of the data set: purified protein. The note with it: acetyl-CoA-forming direction (acetate limiting), 37°C.

Substrate in data set [1]: CC(C)(COP(=O)(O)OP(=O)(O)OC[C@H]1O[C@@H](n2cnc3c(N)ncnc32)[C@H](O)[C@@H]1OP(=O)(O)O)[C@@H](O)C(=O)NCCC(=O)NCCS
Nature of the data set: coupled enzyme assay, NAD(H) oxidation. Type of data set: biochemical, Syntrophus aciditrophicus. The note with it: acetyl-CoA-forming direction (CoA limiting), 37°C. The source says:
coupled enzyme assay, NAD(H) oxidation on Purified Acs1 (native AMP-forming, acetyl-CoA synthetase)

Substrate in data set [2]: O=P(O)(O)OP(=O)(O)O
Kind of data set: ATP formation coupled to hexokinase / glucose-6-phosphate dehydrogenase, NADP+ reduction. The format is biochemical, Syntrophus aciditrophicus. The settings on record: acetate-forming direction (pyrophosphate limiting), AMP and acetyl-CoA co-substrates, 37°C, enzyme purified without ammonium sulfate fractionation. The source says:
ATP formation coupled to hexokinase / glucose-6-phosphate dehydrogenase, NADP+ reduction on Purified Acs1 (native AMP-forming, acetyl-CoA synthetase)

Substrate in data set [3]: CC(C)(COP(=O)(O)OP(=O)(O)OC[C@H]1O[C@@H](n2cnc3c(N)ncnc32)[C@H](O)[C@@H]1OP(=O)(O)O)[C@@H](O)C(=O)NCCC(=O)NCCS
Nature of the data set: coupled enzyme assay, NAD(H) oxidation. The format is biochemical, Syntrophus aciditrophicus. The settings on record: acetyl-CoA-forming direction (CoA limiting), 37°C. The source says: coupled enzyme assay, NAD(H) oxidation on Recombinant Acs1 (SYN_02635 gene product)
This is another data set of the same source.

B1: Purified Acs1 (native AMP-forming, acetyl-CoA synthetase) (Syntrophus aciditrophicus SB) (protein)
chain: MGEESILKEFYPVPERIKAKAWVKGRGEYDKLYAESIADSAAWWAKQADEILTFYKKWDKVEDFNFDIRKGPIHVKYFEGAKLNVSYNCLDRHLATKGDKVAIQWEGNEPGEQKAYTYKDLHTEVCKFANVLKKHGIKRGDRVCIYTPMVVEAAIAMLACTRIGAVHAIVFGGFSSDALAVRIQDAQAKLLVVCDGTFRGAKAVPQKKDADVALKECPTIEKVIVVRRVGDKIACDMTPGRDLWWHDEMATVDANCECEQMDAEDTLFILYTSGSTGQPKGALHTTAGYLLYAAYTSKFAFDLHDEDIHWCTADIGWVTGHSYVVYGPLALGATSIMFEGVPNYPTYSRFWQVVEKYKVTSFYTAPTAIRAIAKEGDEWLKGIDLSSLRVLSSVGEPLNPEAWQWFYEKIGNSQCPIVDTWWQTETGGHMILPLPGAIDIKPAKPALPIMGVIPTLVDDQTGEELKNMEANGALCFKTAWPGITRTIYGDHKRYEETYFEPYPGNYFSGDGALRDKDGYYRITGRIDDVINVSGHRMGTAEIEATLNAHEKVAESAVVGYPHEVKGQSIYAYITLKTGFEPSEDLKKELTQYVRTIIGPIATPEKIQWADGLPKTRSGKIMRRILKKVAANELGDLGDTSTLADPAVVDDLVKNRL
notes: native, purified from crotonate-grown pure-culture cell extracts; single band ~74 kDa on denaturing gel; untagged
Turning to B1, the Km is 590 ± 200 µM in “purified protein”, 260 ± 100 µM in data set [1] and 250 ± 20 µM in data set [2].

B2: Recombinant Acs1 (SYN_02635 gene product) (Syntrophus aciditrophicus SB) (protein)
chain: MGEESILKEFYPVPERIKAKAWVKGRGEYDKLYAESIADSAAWWAKQADEILTFYKKWDKVEDFNFDIRKGPIHVKYFEGAKLNVSYNCLDRHLATKGDKVAIQWEGNEPGEQKAYTYKDLHTEVCKFANVLKKHGIKRGDRVCIYTPMVVEAAIAMLACTRIGAVHAIVFGGFSSDALAVRIQDAQAKLLVVCDGTFRGAKAVPQKKDADVALKECPTIEKVIVVRRVGDKIACDMTPGRDLWWHDEMATVDANCECEQMDAEDTLFILYTSGSTGQPKGALHTTAGYLLYAAYTSKFAFDLHDEDIHWCTADIGWVTGHSYVVYGPLALGATSIMFEGVPNYPTYSRFWQVVEKYKVTSFYTAPTAIRAIAKEGDEWLKGIDLSSLRVLSSVGEPLNPEAWQWFYEKIGNSQCPIVDTWWQTETGGHMILPLPGAIDIKPAKPALPIMGVIPTLVDDQTGEELKNMEANGALCFKTAWPGITRTIYGDHKRYEETYFEPYPGNYFSGDGALRDKDGYYRITGRIDDVINVSGHRMGTAEIEATLNAHEKVAESAVVGYPHEVKGQSIYAYITLKTGFEPSEDLKKELTQYVRTIIGPIATPEKIQWADGLPKTRSGKIMRRILKKVAANELGDLGDTSTLADPAVVDDLVKNRL
Turning to B2, the Km in the data set “purified protein” stood at 960 ± 20 µM; in data set [3], 210 ± 50 µM.

As usually defined, the Km is the substrate concentration at which the rate is half of its maximum.
